One experiment has as its target NRP-1 (Homo sapiens) (UniProt O14786). In words: SPR. The following applies: cited from earlier work.
Experiment [1] concerns the target Neuropilin-1 (NRP-1) (human (endogenous in THP-1)) (UniProt O14786).

Where no end group is shown, it is not given here.

Usually Kd stands for the concentration at which binding is half-saturated. KDKPPR peptide: the Kd with NRP-1 (Homo sapiens) is 4.7 µM. On to KDKPPR (also: grafted onto AGuIX nanoparticles with porphyrin and gadolinium) [KDKPPR ligand peptide on AGuIX@PS@KDKPPR nanoparticles], for which, in experiment [1], the uptake of AGuIX@PS@KDKPPR nanoparticles (1 µM, 4 h or 24 h, 37 °C) by M0, M1 and M2 macrophages, porphyrin fluorescence of the cell lysate; control: AGuIX@PS@scramble, 24 h (fold (M0 and M2 against M1, 24 h)) stood at 3.

The values are drawn from article PMC10057379.
